Experimental data published in patent US7700353B2, “Compositions and methods for inducing apoptosis in tumor cells” (E-P Therapeutics, Inc., priority 1998, dated 2010).

What was measured:
Type in all cases: cell-based, human
293GP or ZR-75-1 cells = experiment: Morphological change by Ea-2, Ea-3, Ea-4 peptides; details: 0.8 μM, 24 hours
Method: Approximately 1-2×10^5 of MCF-7, ZR-75-1, HT-29, HepG2, 293GP, HC or SK-N-F1 cells re-suspended in their respective basal medium without fetal bovine serum (FBS) were plated in a 6-well culture chamber. Prior to plating cells, an acid-washed coverslip was placed in each well of the culture chamber. Recombinant rainbow trout E-peptides (rtEa-2, rtEa-3 or rtEa-4 peptide at 0.8 µM), human IGF-I (hIGF-1, 2.5 nM) or the same amount of control protein was added to each well and the cell cultures were incubated at 37° C. under a humidified atmosphere of 5% CO2. The control protein was prepared from E. coli cells carrying the expression plasmid but without the E-peptide gene according to the purification method described by Tian et al. (1999). Coverslips were removed from the culture chamber 24 hours after initiation of the treatment and observed under an Olympic inverted microscope equipped with differential interference phase contrast objective lenses or phase contrast objective lens (final magnification, 200×). The morphological change assay was performed at least 10 times with different batches of Ea-4 peptide preparations.
Cells were again cultured as described above. Twenty-four hours after treatment with 0.8 µM of E-peptides or the control protein, the cells were observed under an Olympic inverted microscope equipped with differential interference phase contrast objective lenses (200× magnification). […] To confirm this hypothesis, synthetic peptides specific to Ea-1-, Ea-2-, Ea-3- and Ea-4-peptide (Ea-1sp, Ea-2sp, Ea-3sp and Ea-4sp) specific sequence (see FIG. 1) were prepared and tested for their activities to induce morphological change in ZR-75-1 cells. For FIG. 6, cells were cultured in F12/DME medium without FBS as described above. Twenty-four hours after treatment with 0.8 µM of synthetic peptide containing Ea-1 sp, Ea-2sp, Ea-3sp or Ea-4sp specific sequence or the control protein, the cells were observed under an Olympic inverted microscope equipped with differential interference phase contrast objective lenses (200× magnification).

[1] = test system: SK-N-F1 neuroblastoma cells; experiment: Neurite-like process outgrowth / morphological differentiation
Method: Cells under various treatment conditions were maintained at 37° C. in a 5% CO2 incubator and observed from 30 minutes to 72 hours after incubation (synthetic human Ea- and Eb-peptide were chemically synthesized at the Biotechnology Center, University of Connecticut). For treatment with synthetic hEa, hEb peptide or hlGF-I, 1×10^5 cells were plated in each well of a 12-well culture plate in DMEM/F12 (1:1) supplemented with 0.4-3.2 µM of synthetic hEa-, hEb-peptide and/or 5-10 nM of hlGF-I.
Neuroblastoma SK-N-F1 cells (10^5) were seeded into 12-well culture plates in DMEM/F12 (1:1) supplemented with 0-3.2 µM of synthetic hEb-peptide, or buffer control, and incubated at 37° C. in a 5% CO2 humidified incubator.
Cell images were taken by random sampling at various time points using a MicroMAX CCD camera (Princeton Instruments, Bozeman, Mont.). Approximately 1000 cells were analyzed from each treatment, carried out in triplicate. Cells with neurites longer than one cell body diameter (>20 µm for SK-N-F1 cells) were scored as positive neurite-bearing (Fagerstrom, et al., Cell Growth Differ., 7: 775-85, 1996; Morrione, et al., Cancer Res. 60: 2263-72, 2000). The percentage of neurite-bearing cells and the respective length of neurites were measured with reference to a stage micrometer and analyzed using the public domain NIH Image program (developed at the U.S. National Institutes of Health and available on the Internet at http://rsb.info.nih.gov/nih-image).
To further characterize the dose-response relationship and time course of hEb peptide in inducing neurite-like process outgrowth, SK-N-F1 neuroblastoma cells were treated with various amounts (0 to 3.2 µM) of hEb peptide over a course of 72 hours. Images of cells were taken by random sampling after 1 h, 6 h, 24 h, 48 h and 72 h of incubation (see FIG. 11B). The average length of neurite-like process outgrowth was measured by random sampling of more than 1000 cells at various time points. The neurite-like processes started to be visible as early as 0.5-1 hour after the addition of hEb peptide. The effect of hEb peptide in inducing neurite-like outgrowth was dose-dependent, as evident from a comparison of cells treated with 0.4 µM hEb peptide with those treated with 0.8-3.2 µM hEb peptide over 24-72 hours. The maximum effect of hEb peptide was observed 48 hours after the addition of 3.2 µM hEb peptide, with an average neurite length of 50 to 60 µm (Table 1, below).

[2] = test system: MDA-MB-231 and ZR-75-1 cells; experiment: Colony formation of hEb cDNA transfectants; details: cells transfected with hEb cDNA
Method: Two gene constructs, CMV-IG F-1-sp-hEb-cDNA-IRES-EGFP and CMV-IRES-EGFP were used in the transfection studies. The first construct (FIG. 9B) contained hEb peptide cDNA (with a signal peptide sequence of hlGF-1), a ribosome re-entry site (IRES) and an enhanced green fluorescence protein (EGFP) marker gene. […] The expression of both gene constructs was driven by a promoter from CMV.
Transfection of the cells was accomplished as follows. MDA-MB-231 cells were cultured in F12/DMEM supplemented with 10% FBS and 10 ng/ml of insulin to 90% confluence. About 5×10^6 cells were harvested and resuspended in 1 mL of serum-free F12/DMEM containing 20 µg of un-linearized constructs. The cells were electroporated in a BRL Cell-Porator using the following settings: low .OMEGA., 1180 micro Faraday (µF) capacitance, and two pulses at 200 volts. Following electroporation, cells were resuspended in 12 mL of fresh growth medium and seeded into a 6-well plate to recover. Permanent transfectants expressing green fluorescence protein (GFP) were enriched in a medium containing neomycin (G418) at 1 mg/mL for ten days and followed with 500 µg/mL for continuous maintenance. Individual green cell clones of transfectants were isolated from the enriched population by the method of serial dilution. […]

B1: rtEa-4: recombinant Ea-4 peptide of rainbow trout pro-IGF-I, 74 amino acid residues (SEQ ID NO: 2) (protein)
chain: RSVRAQRHTDMPRTPKVSTAVQNVDRGTERRTAQHPDKTKTKKKPLSGHSHPSCKEVHQKNSSRGNTGGRNYRM
modifications: Oncorhynchus mykiss
293GP or ZR-75-1 cells
  induction of morphological change: able to induce morphological change

B2: hEb: chemically synthesized human Eb peptide of pro-IGF-I, 77 amino acid residues (SEQ ID NO:1) (peptide, listed as Homo sapiens)
chain: RSVRAQRHTDMPKTQKYQPPSTNKNTKSQRRKGWPKTHPGGEQKEGTEASLQIRGKKKEQRREIGSRNAECRGKKGK
[1]; 0.4 μM, 6 h
  Neurite length: 31 ± 7.6 μm
[1]; 0.4 μM, 24 h
  Neurite length: 29 ± 5.2 μm
[1]; 0.4 μM, 48 h
  Neurite length: 35 ± 0.9 μm
[1]; 0.4 μM, 72 h
  Neurite length: 32 ± 3.1 μm
[1]; 0.8 μM, 2 h
  Neurite length: 33 ± 2.1 μm
[1]; 0.8 μM, 6 h
  Neurite length: 36 ± 0.6 μm
[1]; 0.8 μM, 24 h
  Neurite length: 38 ± 3.9 μm
[1]; 0.8 μM, 48 h
  Neurite length: 43 ± 1.0 μm
[1]; 0.8 μM, 72 h
  Neurite length: 41 ± 2.5 μm
[1]; 1.6 μM or 3.2 μM
  morphological change: differentiated into a neuron-like morphology
[1]; 1.6 μM, 6 h
  Neurite length: 38 ± 3.5 μm
[1]; 1.6 μM, 24 h
  Neurite length: 39 ± 1.8 μm
[1]; 1.6 μM, 48 h
  Neurite length: 47 ± 3.9 μm
[1]; 1.6 μM, 72 h
  Neurite length: 48 ± 2.8 μm
[1]; 3.2 μM, 6 h
  Neurite length: 39 ± 2.2 μm
[1]; 3.2 μM, 24 h
  Neurite length: 45 ± 1.7 μm
[1]; 3.2 μM, 48 h
  Neurite length: 52 ± 3.7 μm
[1]; 3.2 μM, 72 h
  Neurite length: 48 ± 2.7 μm
[1]; after addition of peptide
  time at which neurite-like processes started to be visible: 0.5 to 1 h
[1]; hEb-peptide combined with mature hIGF-I, 1-4 hours after stimulation
  increase in the percentage of neurite-bearing cells: 20-30%
[1]; synthetic peptide
  in vitro effective concentration: 0.4 to 3.2 µM
[2]
  colony formation activities: greatly reduced or diminished completely
